T1: high affinity IL2 receptor on CTLL-2 mouse T cells (mouse, UniProt P01590 22-268; P16297 27-539; P34902 23-369)
T1 sequence (looked up) 1: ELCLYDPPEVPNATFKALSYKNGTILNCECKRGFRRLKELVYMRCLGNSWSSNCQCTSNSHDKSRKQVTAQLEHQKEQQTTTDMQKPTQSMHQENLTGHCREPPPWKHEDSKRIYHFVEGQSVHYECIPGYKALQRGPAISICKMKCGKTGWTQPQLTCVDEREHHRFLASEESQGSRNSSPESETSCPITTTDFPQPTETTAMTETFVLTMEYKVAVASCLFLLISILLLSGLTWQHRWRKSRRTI
T1 sequence (looked up) 2: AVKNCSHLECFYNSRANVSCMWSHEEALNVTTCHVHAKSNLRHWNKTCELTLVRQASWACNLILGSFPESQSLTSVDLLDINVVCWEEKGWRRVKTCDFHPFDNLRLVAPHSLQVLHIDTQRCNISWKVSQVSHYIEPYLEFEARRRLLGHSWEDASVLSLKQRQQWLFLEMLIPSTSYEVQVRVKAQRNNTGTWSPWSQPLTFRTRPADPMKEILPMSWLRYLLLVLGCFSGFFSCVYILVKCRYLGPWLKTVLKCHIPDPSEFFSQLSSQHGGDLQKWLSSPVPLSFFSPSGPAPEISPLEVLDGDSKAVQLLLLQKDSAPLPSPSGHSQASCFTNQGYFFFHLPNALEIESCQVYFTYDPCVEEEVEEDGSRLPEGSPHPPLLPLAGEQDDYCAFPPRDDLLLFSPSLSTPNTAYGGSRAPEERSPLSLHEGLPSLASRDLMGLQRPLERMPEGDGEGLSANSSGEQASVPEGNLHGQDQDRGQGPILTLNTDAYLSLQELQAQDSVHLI
T1 sequence (looked up) 3: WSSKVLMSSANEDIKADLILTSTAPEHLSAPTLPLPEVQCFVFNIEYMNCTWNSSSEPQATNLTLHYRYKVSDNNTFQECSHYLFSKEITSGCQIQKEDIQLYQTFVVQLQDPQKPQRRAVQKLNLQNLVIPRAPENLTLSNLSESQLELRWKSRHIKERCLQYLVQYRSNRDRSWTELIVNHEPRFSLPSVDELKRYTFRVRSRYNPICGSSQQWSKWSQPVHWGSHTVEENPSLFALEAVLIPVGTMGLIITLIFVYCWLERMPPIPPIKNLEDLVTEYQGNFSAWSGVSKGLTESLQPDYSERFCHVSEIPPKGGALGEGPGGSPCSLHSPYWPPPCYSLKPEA

T2: intermediate affinity IL2 receptor on TF-1β cells (UniProt P14784 27-551; P31785 23-369)
T2 sequence (looked up) 1: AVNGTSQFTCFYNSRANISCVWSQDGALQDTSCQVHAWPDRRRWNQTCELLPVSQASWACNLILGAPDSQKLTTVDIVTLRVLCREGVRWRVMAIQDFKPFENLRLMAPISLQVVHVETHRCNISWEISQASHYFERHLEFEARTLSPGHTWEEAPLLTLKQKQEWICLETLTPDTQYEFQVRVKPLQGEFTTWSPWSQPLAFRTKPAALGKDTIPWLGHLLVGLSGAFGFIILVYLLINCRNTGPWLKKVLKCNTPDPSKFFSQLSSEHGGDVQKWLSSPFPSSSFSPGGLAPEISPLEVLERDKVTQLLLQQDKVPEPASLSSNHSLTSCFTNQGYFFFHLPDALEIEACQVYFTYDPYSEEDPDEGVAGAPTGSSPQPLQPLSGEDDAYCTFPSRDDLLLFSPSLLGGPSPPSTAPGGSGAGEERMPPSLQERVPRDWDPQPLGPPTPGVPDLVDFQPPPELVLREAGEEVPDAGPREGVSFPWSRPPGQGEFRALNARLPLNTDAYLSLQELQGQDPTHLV
T2 sequence (looked up) 2: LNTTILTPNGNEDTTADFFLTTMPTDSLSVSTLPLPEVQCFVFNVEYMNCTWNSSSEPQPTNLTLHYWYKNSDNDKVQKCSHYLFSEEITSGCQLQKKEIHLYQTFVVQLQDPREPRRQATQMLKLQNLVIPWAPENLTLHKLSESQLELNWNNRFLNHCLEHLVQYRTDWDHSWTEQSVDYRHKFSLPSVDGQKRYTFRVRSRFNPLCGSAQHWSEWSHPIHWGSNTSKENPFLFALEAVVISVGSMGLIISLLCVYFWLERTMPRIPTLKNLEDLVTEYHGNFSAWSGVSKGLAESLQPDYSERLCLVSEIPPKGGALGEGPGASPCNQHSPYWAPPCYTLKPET

B1: 14.18-IL2-L containing SEQ ID NO: 5 (other)
light: EIVMTQSPATLSVSPGERATLSCRSSQSLVHRNGNTYLHWYLQKPGQSPKLLIHKVSNRFSGVPDRFSGSGSGTDFTLKISRVEAEDLGVYFCSQSTHVPPLTFGAGTKLELKRTVAAPSVFIFPPSDEQLKSGTASVVCLLNNFYPREAKVQWKVDNALQSGNSQESVTEQDSKDSTYSLSSTLTLSKADYEKHKVYACEVTHQGLSSPVTKSFNRGECAPTSTQLQLEHLLLDLQMILNGINNYKNPKLTRMLTFKFYMPKKATELKHLQCLEEELKPLEEVLNLAQSKNFHLRPRDLISNINVIVLELKGSETTFMCEYADETATIVEFLNRWITFCQSIISTLT
VH: EVQLLQSGPELEKPGASVMISCKASGSSFTGYNMNWVRQNIGKSLEWIGAIDPYYGGTSYNQKFKGRATLTVDKSSSTAYMHLKSLTSEDSAVYYCVSGMEYWGQGTSVTVSS
B2: 14.18-IL2-L containing SEQ ID NO: 6 (other)
light: IVMTQSPATLSVSPGERATLSCRSSQSLVHRNGNTYLHWYLQKPGQSPKLLIHKVSNRFSGVPDRFSGSGSGTDFTLKISRVEAEDLGVYFCSQSTHVPPLTFGAGTKLELKRTVAAPSVFIFPPSDEQLKSGTASVVCLLNNFYPREAKVQWKVDNALQSGNSQESVTEQDSKDSTYSLSSTLTLSKADYEKHKVYACEVTHQGLSSPVTKSFNRGECTQLQLEHLLLDLQMILNGINNYKNPKLTRMLTFKFYMPKKATELKHLQCLEEELKPLEEVLNLAQSKNFHLRPRDLISNINVIVLELKGSETTFMCEYADETATIVEFLNRWITFCQSIISTLT
VH: B1 VH

Experiments:
Assay in all cases: cell-based or functional assay
[1] = molecular target: intermediate affinity IL2 receptor on TF-1β cells (UniProt P14784)
[2] = molecular target: high affinity IL2 receptor on CTLL-2 mouse T cells (mouse) (UniProt P01590)
[3] = molecular target: T1, high affinity IL2 receptor on CTLL-2 …
[4] = molecular target: T2, intermediate affinity IL2 receptor on …

Molecule | Relative Activity High aff/Inter Aff (intermediate affinity part) [1] | Relative Activity High aff/Inter Aff (high affinity part) [2] | Selectivity for High Affinity Receptor [2] | Relative Activity High aff/Inter Aff (high affinity part) [3] | Selectivity for High Affinity Receptor [3] | Relative Activity High aff/Inter Aff (intermediate affinity part) [4] | TF-1β (Int aff) ED50 [4]
ch14.18-IL2-H heavy chain fusion (H-fusion with a chimeric 14.18) | 1 | 1 | 1 |  |  |  | 
B1 |  |  |  | 1 | > 100 | 0.01 | > 0.5 µg/mL
B2 |  |  |  | 1 | > 100 | 0.01 | > 0.5 µg/mL
